Data: article doi:10.1101/723213 (bioRxiv, 2019)
Numbering of substitutions follows the chain as printed. Names may count otherwise.

T1: CENP-A-GFP-LacI (Drosophila melanogaster, UniProt Q9V6Q2 1-225)
T1 sequence (looked up): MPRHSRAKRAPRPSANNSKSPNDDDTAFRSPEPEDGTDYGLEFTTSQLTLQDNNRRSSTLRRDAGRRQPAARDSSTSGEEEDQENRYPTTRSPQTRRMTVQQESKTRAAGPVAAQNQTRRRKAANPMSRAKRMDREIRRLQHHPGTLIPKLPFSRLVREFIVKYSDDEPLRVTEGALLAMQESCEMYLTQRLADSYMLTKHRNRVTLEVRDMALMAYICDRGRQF

T2: His-CAL1_(1-160) (Drosophila melanogaster, UniProt Q9VEN2 1-160)
T2 sequence (looked up): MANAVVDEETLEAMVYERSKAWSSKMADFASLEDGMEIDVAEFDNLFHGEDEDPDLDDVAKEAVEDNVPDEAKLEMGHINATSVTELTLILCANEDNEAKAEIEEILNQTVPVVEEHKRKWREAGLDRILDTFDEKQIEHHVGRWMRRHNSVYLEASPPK

B1: CENP-C_(1264-1411) (tag cleaved) (domain or fragment, Drosophila melanogaster, UniProt Q9VHP9 1264-1411, looked up)
chain: GPVVFSTPLRDEQEEASTKLMQWLRGVGDAPPSASMSDENASVSSANELIFCQVDGIDYAFYNTKEKAMLGYMRFKPYQKRSMKQAKVHPLKLLVQFGEFNVETLAVGEEKEVHSVLRVGDMIEIDRGTRYSIQNAIDKVSVLMCIRS
B2: His-CAL1_(1-160) F43R (domain or fragment)
chain: T2 sequence (looked up) with F43R
B3: His-CAL1_(1-50) (domain or fragment)
chain: MANAVVDEETLEAMVYERSKAWSSKMADFASLEDGMEIDVAEFDNLFHGE
B4: CAL1_(841-979) (untagged) (domain or fragment, Drosophila melanogaster, UniProt Q9VEN2 841-979, looked up)
chain: GGDPDCTVVTSTTGCEPPASERQEIPATIKITKRGILLHSPSAPEGASFTLTEQGLGKIIGERWARKYLKYHIGSRSFDSRHSVYYQPTPQLAAALSAPQDAQNIGNISGSSASDDDIFEQINRYGTVYSILENNSGDK
B5: CAL1_(F43R)-V5 (natural protein, Drosophila melanogaster, UniProt Q9VEN2 1-979, looked up)
chain: MANAVVDEETLEAMVYERSKAWSSKMADFASLEDGMEIDVAERDNLFHGEDEDPDLDDVAKEAVEDNVPDEAKLEMGHINATSVTELTLILCANEDNEAKAEIEEILNQTVPVVEEHKRKWREAGLDRILDTFDEKQIEHHVGRWMRRHNSVYLEASPPKYLPPHHNSISDESDESMHSIDTARYIQQSRRRNAHMTNKNMTTIKMYRKHSHKRDELRAKYAYGDEQEHRHHMQAVLLRRRERERQLAYLASTPMQCVYSSGHHMRRKNLRKRRINSWMFDSASSSEEDTSFGGCDCHSCRRHYALSRSVYQSCPYGRGQREYHHRQMASRTMHTMRRQHTFDMEMDLRPRLPENECSCCNSDRLCSNVIHIANSSTEEWVVENRSNHLTQETQEKTRKQKHQPMDARKVSHQPVCSKGHEQKPLSSKATSVSKLVLSKEKYMQMFDSESSDEDNALAKKGLLCCSDKKKGMTFPTPNAAGKITHPTSSAKKAIRKEARPNGLAQIQEEGPTATNSPIESTYLPVAHMKSVSIDGSSGTSATFESPAKKAPKRGIRETSPLNGNELQQLISTIPIADEKASSLMEKVDNCIGRESFDDRNKDFMHMENSSTKTAVEKSTKQKRVSGKKSEIPKSIITNNEILEKNSTETLSEKQVAAKAKKQSVRKTGATGKPSTSRLKKSEKTKTTSSVTSTSKLEQVREEESDVSSEVLAKPKPQCSTTASILKQGGDGASNSEDDLQIALAMSKATYKEEQQKRKKTKREPSNKQPQSPAEKSMTVFNNQSVACNSTALANDTACYRVLPKRRGVKRAAAVSTTEEKTATNSSSSPTSSLEEMGSPTGGDPDCTVVTSTTGCEPPASERQEIPATIKITKRGILLHSPSAPEGASFTLTEQGLGKIIGERWARKYLKYHIGSRSFDSRHSVYYQPTPQLAAALSAPQDAQNIGNISGSSASDDDIFEQINRYGTVYSILENNSGDK
B6: CENP-A_(101-225) (domain or fragment)
chain: QQESKTRAAGPVAAQNQTRRRKAANPMSRAKRMDREIRRLQHHPGTLIPKLPFSRLVREFIVKYSDDEPLRVTEGALLAMQESCEMYLTQRLADSYMLTKHRNRVTLEVRDMALMAYICDRGRQF

Columns and labels:
SEC-MALS = molecular target: the molecule itself; experiment: SEC-MALS
[1] = molecular target: T3, CENP-A_(101-225)–H4 heterodimer (Drosophila melanogaster, UniProt Q9V6Q2 101-225; P84040 2-103); experiment: pull-down
[2] = molecular target: T3, CENP-A_(101-225)–H4 heterodimer; experiment: SEC-MALS
[3] = molecular target: B1; experiment: AUC
CENP-A-GFP-LacI = molecular target: T1, CENP-A-GFP-LacI; experiment: LacO/LacI tethering assay in cells
Histone H4 = Histone H4 (Drosophila melanogaster, UniProt P84040 2-103); experiment: crystal structure
His-CAL1_(1-160) = molecular target: T2, His-CAL1_(1-160); experiment: crystal structure

Binder: B1
stoichiometry N (SEC-MALS): 2

Binder: B2
binding result [1]: binds

Binder: B3
stoichiometry N [2]: 1 CAL1 per CENP-A/H4 heterodimer

Binder: B4
stoichiometry N [3]: 1 CAL1 per CENP-C dimer

Binder: B5
fold reduction of the level co-localising with CENP-A, against CAL1 WT (CENP-A-GFP-LacI): 3 fold

Binder: B6
binding result (Histone H4): binds
binding result (His-CAL1_(1-160)): binds
